Experimental findings from patent US20240252589A1, “AGENT FOR ENHANCING PHAGOCYTOSIS ABILITY OF NEUTROPHILS” (priority 2018, published 2024) are described below.

Experiment [1] has as its system Human neutrophils. The experiment can be described thus: Phagocytosis ability of neutrophils against Escherichia coli (pHrodo indicator, InCell Analyzer). It is filed as cell-based. How it is done:
(§1) Phagocytosis ability of neutrophils against Escherichia coli (a gram-negative bacterium) or Staphylococcus aureus (a gram-positive bacterium) was measured with a pHrodo™ indicator. Phagosomes within neutrophils can be fluorescence-stained with a pHrodo™ staining reagent to measure their phagocytosis ability. Human neutrophils were separated from the whole blood using a hemocyte separation solution Polymorphprep™, and the cell solution was washed with PBS to perform suspension. The numbers of cells were adjusted, and the cells were stained with Hoechst33342 (nucleus staining: blue) and calcein-AM (cytoplasm: green) by incubation under CO2 at 37° C. for 15 min. Neutrophil solutions were resuspended in HBSS, and the numbers of cells were adjusted (2×10^6 cells/mL).
(§2) To the neutrophil liquids at the cell concentration, hHRG solutions were added, and the mixtures were dispensed to a 96-well plate, allowing incubation under CO2 at 37° C. for 30 min. Then, Escherichia coli (pHrodo™ Escherichia coli) or Staphylococcus aureus (pHrodo™ Staphylococcus aureus) was added to the 96-well plate, and incubated under CO2 at 37° C. In this Example, the final concentration of the cell liquids was 2×10^4 cells/well (2×10^5 cells/mL), the final concentrations of HRG were from 0.01 μM to 3.0 μM, and the final concentration of pHrodo™ Escherichia coli or pHrodo™ Staphylococcus aureus was 25 μg/well (250 μg/mL). The incubation of Escherichia coli was for 60 min, and that of Staphylococcus aureus was for 120 min.
Through use of InCell Analyzer (GE Healthcare), the amounts of red-colored pHrodo by neutrophils' uptake were analyzed by image analysis and quantification to observe the phagocytosis ability of neutrophils.
To the neutrophil liquids at the cell concentration (2×10^6 cells/mL), each solution of hHRG, rHRG, or HRG-Fc was added to observe the phagocytosis ability of neutrophils against Escherichia coli or Staphylococcus aureus by the same procedure as Experimental Example 1 (HRG final concentrations of from 0.1 μM to 3.0 μM). […] The amounts of red-colored pHrodo by neutrophils' uptake can be imaged and quantified to observe the phagocytosis ability of neutrophils.

Experiment [2] deals with Human neutrophils. Briefly: Phagocytosis ability of neutrophils against Staphylococcus aureus (pHrodo indicator, InCell Analyzer). The format is cell-based. As for the experimental part: as §1, §2
Through use of InCell Analyzer (GE Healthcare), the amounts of red-colored pHrodo by neutrophils' uptake were analyzed by image analysis and quantification to observe the phagocytosis ability of neutrophils. The analysis results of phagocytosis ability of neutrophils against Escherichia coli and Staphylococcus aureus are shown in FIG. 4A and FIG. 4B.
To the neutrophil liquids at the cell concentration (2×10^6 cells/mL), each solution of hHRG, rHRG, or HRG-Fc was added to observe the phagocytosis ability of neutrophils against Escherichia coli or Staphylococcus aureus by the same procedure as Experimental Example 1 (HRG final concentrations of from 0.1 μM to 3.0 μM). As an observation experiment, phagocytosis ability of neutrophils against Escherichia coli or Staphylococcus aureus was observed, when each of different anti-HRG antibodies or control antibodies was added. The amounts of red-colored pHrodo by neutrophils' uptake can be imaged and quantified to observe the phagocytosis ability of neutrophils. […]

Experiment [3] relates to neutrophils. The experiment can be described thus: Opsonin effect 2: phagocytosis by neutrophils of pretreated Escherichia coli. It is filed as cell-based, Human. How it is done:
(§3) Escherichia coli (pHrodo™ Escherichia coli) or Staphylococcus aureus (pHrdo™ Staphylococcus aureus) was pre-incubated with human serum albumin (HSA, 1.0 μM), hHRG (1.0 μM), or 5-fold-diluted human serum (1/5 Serum) at 37° C. for 15 min, and then Escherichia coli or Staphylococcus aureus was washed twice with HBSS. […] A hHRG solution was added to a neutrophil solution. The mixture was dispensed to a 96-well plate and incubated under CO2 at 37° C. for 30 min. Then, the Escherichia coli or Staphylococcus aureus pretreated with the above-mentioned HSA or HRG solution, or 5-fold-diluted human serum was added, and the resulting mixture was dispensed to the 96-well plate and incubated under CO2 at 37° C. for 120 min. The final concentration of the cell liquid at this time was 2×10^4 cells/well (2×10^5 cells/mL), the final concentration of HSA or HRG was […], and the final concentration of […] was 25 μg/well (250 μg/mL). Through use of InCell Analyzer (GE Healthcare), the amounts of red-colored pHrodo by neutrophils' uptake were analyzed by image analysis and quantification to observe the phagocytosis ability of neutrophils.

Experiment [4] has as its system neutrophils. Briefly: Opsonin effect 2: phagocytosis by neutrophils of pretreated Staphylococcus aureus. The format is cell-based, Human. As for the experimental part: as §3
The test system of experiment [5] is neutrophils. Briefly: Opsonin effect 1: phagocytosis by neutrophils of pHrodo Red Zymosan treated with serum containing HRG or no HRG. The format is cell-based, Human. To be noted: Zymosan 500 μg/mL; HRG 1.0 μM; 120 min; compared with serum containing no HRG. As for the experimental part: In this Experimental Example, the effect of HRG on opsonization (Op) was observed using serum containing HRG or no HRG. Healthy human serum was used for opsonization (Op). In this Experimental Example, the “serum containing HRG” refers to untreated, healthy human serum. In this Experimental Example, the “serum containing no HRG” refers to human serum in which a Ni-NTA agarose gel is added to human serum to adsorb HRG in the serum, and then the Ni-NTA agarose gel is removed by centrifugation.
Zymosan (pHrodo™ Red Zymosan, manufactured by Thermo Fisher Scientific Inc.) was blended with serum containing HRG or no HRG at 4° C., and then the mixture was stirred well by ultrasonic homogenization. After the stirring, centrifugation was performed at 4° C. and 15,000 rpm for 15 min. The supernatant was discarded and the sediment was suspended in HBSS. This washing procedure was repeated twice, and then Zymosan was suspended in HBSS. The concentration of Zymosan at this time of point was 1.0 mg/mL.
To the neutrophil liquids, hHRG solutions were added, and the mixtures were dispensed to a 96-well plate, allowing incubation under CO2 at 37° C. for 30 min. […] Through use of InCell Analyzer (GE Healthcare), the amounts of red-colored pHrodo by neutrophils' uptake were analyzed by image analysis and quantification to observe the phagocytosis ability of neutrophils.

[6] abbreviates: Experimental Example 2, final concentrations 0.1 μM to 3.0 μM.
The mark [7] stands for this setting: bacteria pre-incubated 37° C. 15 min with hHRG 1.0 μM or 5-fold-diluted human serum.
Setting [8] is: compared to un-opsonized (UnOp) bacterial cells, HRG added to neutrophils.
Where [9] appears, read: Experimental Example 3, 1.0 μM hHRG, antibodies 10 μM.

B1: rHRG: Recombinant human HRG expressed in CHO cells, purified on Ni-NTA agarose (protein)
chain: EFRMGKALIAALLLITLQYSCAVSPTDCSAVEPEAEKALDLINKRRRDGYLFQLLRIADAHLDRVENTTVYYLVLDVQESDCSVLSRKYWNDCEPPDSRRPSEIVIGQCKVIATRHSHESQDLRVIDFNCTTSSVSSALANTKDSPVLIDFFEDTERYRKQANKALEKYKEENDDFASFRVDRIERVARVRGGEGTGYFVDFSVRNCPRHHFPRHPNVFGFCRADLFYDVEALDLESPKNLVINCEVFDPQEHENINGVPPHLGHPFHWGGHERSSTTKPPFKPHGSRDHHHPHKPHEHGPPPPPDERDHSHGPPLPQGPPPLLPMSCSSCQHATFGTNGAQRHSHNNNSSDLHPHKHHSHEQHPHGHHPHAHHPHEHDTHRQHPHGHHPHGHHPHGHHPHGHHPHGHHPHCHDFQDYGPCDPPPHNQGHCCHGHGPPPGHLRRRGPGKGPRPFHCRQIGSVYRLPPLRKGEVLPLPEANFPSFPLPHHKHPLKPDNQPFPQSVSESCPGKFKSGFPQVSMFFTHTFPKPLE
modifications: misc_feature 1..1596 EcoR1-HRG-Xho1
notes: Recombinant human HRG expressed in CHO cells, purified on Ni-NTA agarose
In the case of B1, in the experiment with Human neutrophils [1] (setting [6]), the “enhancement of phagocytosis of neutrophils against Escherichia coli” value is on record as “to the same extent as hHRG”. Also, the “enhancement of phagocytosis of neutrophils against Staphylococcus aureus” value in the experiment with Human neutrophils [2] (setting [6]) is given as “to the same extent as hHRG”.

B2: HRG: Human plasma-derived histidine-rich glycoprotein, about 80 kDa, purified by Ni-NTA affinity and Mono Q chromatography (protein)
chain: VSPTDCSAVEPEAEKALDLINKRRRDGYLFQLLRIADAHLDRVENTTVYYLVLDVQESDCSVLSRKYWNDCEPPDSRRPSEIVIGQCKVIATRHSHESQDLRVIDFNCTTSSVSSALANTKDSPVLIDFFEDTERYRKQANKALEKYKEENDDFASFRVDRIERVARVRGGEGTGYFVDFSVRNCPRHHFPRHPNVFGFCRADLFYDVEALDLESPKNLVINCEVFDPQEHENINGVPPHLGHPFHWGGHERSSTTKPPFKPHGSRDHHHPHKPHEHGPPPPPDERDHSHGPPLPQGPPPLLPMSCSSCQHATFGTNGAQRHSHNNNSSDLHPHKHHSHEQHPHGHHPHAHHPHEHDTHRQHPHGHHPHGHHPHGHHPHGHHPHGHHPHCHDFQDYGPCDPPPHNQGHCCHGHGPPPGHLRRRGPGKGPRPFHCRQIGSVYRLPPLRKGEVLPLPEANFPSFPLPHHKHPLKPDNQPFPQSVSESCPGKFKSGFPQVSMFFTHTFPK
In the case of B2, in the experiment on neutrophils [3] (setting [7]), the “opsonin (Op)-enhancing effect of pretreatment of Escherichia coli” value is “did not exhibit an opsonin (Op)-enhancing effect”. Moreover, the “phagocytosis ability of neutrophils of Escherichia coli opsonized with human sera on addition of HRG” value in the experiment with neutrophils [3] (setting [8]) was “highly enhanced”. Also, the “opsonin (Op)-enhancing effect of pretreatment of Staphylococcus aureus” value in the experiment on neutrophils [4] (setting [7]) is recorded as “did not exhibit an opsonin (Op)-enhancing effect”. Also, in the experiment with neutrophils [4] (setting [8]), the “phagocytosis ability of neutrophils of Staphylococcus aureus opsonized with human sera on addition of HRG” value is “highly enhanced”. In addition, the “HRG concentration at which phagocytosis ability reached a plateau” value in the experiment on Human neutrophils [1] (Experimental Example 1, Escherichia coli) is 0.3 M; with Human neutrophils [2] (Experimental Example 1, Staphylococcus aureus), 0.3 µM. Further, the “phagocytosis ability of neutrophils against Escherichia coli” value was “enhanced” in the experiment on Human neutrophils [1] (Experimental Example 1, hHRG 0.01 μM to 3.0 μM, 30 min preincubation, 60 min with pHrodo E. coli) and “enhanced” in the experiment on Human neutrophils [1] (setting [9]). The “amount of phagocytosis by neutrophils of serum-treated Zymosan (opsonin effect)” value with neutrophils [5] is reported as “opsonin (Op)-enhancing effect”. Moreover, the “phagocytosis ability of neutrophils against Staphylococcus aureus” value is recorded as “enhanced” in the experiment with Human neutrophils [2] (Experimental Example 1, hHRG 0.01 μM to 3.0 μM, 30 min preincubation, 120 min with pHrodo S. aureus) and “enhanced” with Human neutrophils [2] (setting [9]).
